Two molecules from patent US7261890 can be followed below.

For test [1], the target named is recombinant canine IgE (canine). In words: IgE binding ELISA of COS supernatant; second number is the relative expression level. Background: ELISA stands for enzyme-linked immunosorbent assay.
Test [2] shares this target. Description: OD of IgE binding ELISA divided by IgG expression relative to chimeric 15A2, COS supernatant.
The target is the same in test [3]. Description: IgE binding ELISA, COS supernatant on plate-coated recombinant canine IgE, anti-dog Fc-HRP.
For test [4] the target is unchanged. Description: IgE binding ELISA of COS supernatant; in this cell the order is reversed (2.4 is the relative expression of Table 5, 0 the OD).

B1: H74-1 caninized heavy chain with 15A2 chimeric light chain Lx (antibody, part only; not given: constant regions, V domains shown, part only)
VH: EVQLVQSAAEVKKPGASVKVSCKTSGYSFTDYFMNWVQQAPGAGLDWMGRINPFNGDPFYNQKFKGRVTLTADTSTSTAYMELSSLRAEDAAVYYCARFYYGRYYAMDYWGQGTLVTV
For B1, the OD of IgE Binding (printed over relative expression level) in test [1] stood at 1.3 OD 650 nm. In addition, the Ratio IgE Binding/Expression in test [2] was determined as 13. In addition, the OD at 650 nm (IgE Binding) in test [3] came out at 1.3 OD 650 nm.

B2: H74-1 / Group 2-1 (CDR-grafted caninized 15A2, heavy and light) (antibody, part only; not given: constant regions, V domains shown, part only)
VH: EVQLVQSAAEVKKPGASVKVSCKTSGYSFTDYFMNWVQQAPGAGLDWMGRINPFNGDPFYNQKFKGRVTLTADTSTSTAYMELSSLRAEDAAVYYCARFYYGRYYAMDYWGQGTLVTV
On to B2, for which the OD of IgE Binding (printed over relative expression level) in test [4] was 0 OD 650 nm.
